Laboratory results: publication PMC4888458

Assays:
[1] = NBD-PS uptake in yeast, flow cytometry; settings: glycan lost; control: wild-type ALIS5 with ALA2
[2] = confocal microscopy of GFP–ALA2 in tobacco epidermal cells; settings: glycan lost; control: untagged wild-type ALIS5 with GFP–ALA2

B1: ALIS5: N181Q (protein)
parent chain: MSSTAASSTVGGGGSSEISGVKKTSKRPKYSRFTQQELPACKPILTPRWVILTFLVAGVVFIPLGVICLFASQGVVEIVDRYDTDCIPTSSRNNMVAYIQGEGDKICKRTITVTKAMKHPVYVYYQLENFYQNHRRYVKSRNDAQLRSPKEEHDVKTCAPEDNVGGEPIVPCGLVAWSLFNDTYSFSRNSQQLLVNKKGISWKSDRENKFGKNVFPKNFQKGAPIGGGTLNISKPLSEQEDLIVWMRTAALPTFRKLYGKIETDLHAGDTITVLLQNNYNTYSFNGQKKLVLSTTSWLGGRNDFLGIAYLTVGSICLFLAVTFAVLYLVKPRQLGDPSYLSWNRSAGGLQ
- other: transport activity [1]: abolishes
- localisation_or_trafficking [2]: abolishes

B2: ALIS5: N231Q/N181Q (protein)
parent chain: B1 parent chain
- other: transport activity [1]: abolishes
- localisation_or_trafficking [2]: abolishes
